B1: Ab2.H (antibody, human IgG1, kappa, N297A, V domains shown)
VH: EVQLVESGGGLVQPGGSLRLSCAASGFTVSKYDMIWVRQAPGKGLESIGIIYDDGDTYYASSAKGRFTISRDNSKNTLYLQMNSLRAEDTAVYYCVKGVSNIWGQGTLVTVSS
VL: DIQMTQSPSTLSASVGDRVTITCQASQSISNYLAWYQQKPGKAPKLLIYSASTLASGVPSRFSGSGSGTEFTLTISSLQPDDFATYYCQSYEGSSSSSYGVGFGGGTKVEIKR
notes: humanized form of Ab2
B2: Ab11A.H (antibody, human IgG1, kappa, N297A, V domains shown)
VH: EVQLVESGGGLVQPGGSLRLSCAASGFTVSAYDILWVRQAPGKGLESIGMMYDDGDTYYATSAKGRFTISRDNSKNTLYLQMNSLRAEDTAVYYCVKGVSNIWGQGTLVTVSS
VL: DIQMTQSPSTLSASVGDRVTITCQASQSIGSSLAWYQQKPGKAPKLLIYSASTLASGVPSRFSGSGSGTEFTLTISSLQPDDFATYYCQSYEGSSSSYYGIGFGGGTKVEIKR
B3: Ab1.H (antibody, human IgG1, kappa, N297A, V domains shown)
VH: EVQLVESGGGLVQPGGSLRLSCAASGFTVSNYDMIWVRQAPGKGLESIGMIYDDGDTYYASSAKGRFTISRDNSKNTLYLQMNSLRAEDTAVYYCVKGVSNHWGQGTLVTVSS
VL: DIQMTQSPSTLSASVGDRVTITCQASQSISSYLAWYQQKPGKAPKLLIYSASTLASGVPSRFSGSGSGTEFTLTISSLQPDDFATYYCQSYDGSSGSSYGVGFGGGTKVEIKR
notes: humanized form of Ab1
B4: Ab11.H (antibody, human IgG1, kappa, N297A, V domains shown)
VH: EVQLVESGGGLVQPGGSLRLSCAASGFTVSAYDILWVRQAPGKGLESIGMMYDDGDTYYATSAKGRFTISRDNSKNTLYLQMNSLRAEDTAVYYCVKGVSNIWGQGTLVTVSS
VL: DIQMTQSPSTLSASVGDRVTITCQASQSIDSSLAWYQQKPGKAPKLLIYSASTLASGVPSRFSGSGSGTEFTLTISSLQPDDFATYYCQSYDGSSSSYYGIGFGGGTKVEIKR
notes: humanized form of Ab11
B5: Ab4.H (antibody, human IgG1, kappa, N297A, V domains shown)
VH: EVQLVESGGGLVQPGGSLRLSCAASGFTVSKHDMIWVRQAPGKGLESIGIIYDDGDTYYANSAKGRFTISRDNSKNTLYLQMNSLRAEDTAVYYCVKGVSNIWGQGTLVTVSS
VL: DIQMTQSPSTLSASVGDRVTITCRASQSISVYLAWYQQKPGKAPKLLIYQASKLASGVPSRFSGSGSGTEFTLTISSLQPDDFATYYCQSYDGSSSSSYGVGFGGGTKVEIKR
notes: humanized form of Ab4
B6: Ab12.H (antibody, human IgG1, kappa, N297A, V domains shown)
VH: not shown
VL: DIQMTQSPSTLSASVGDRVTITCQASQSIGSSLAWYQQKPGKAPKLLIYAASTLASGVPSRFSGSGSGTEFTLTISSLQPDDFATYYCQSYDGSSSSSYGVGFGGGTKVEIKR
notes: humanized form of Ab12
B7: Ab10.H (antibody, human IgG1, kappa, N297A, V domains shown)
VH: EVQLVESGGGLVQPGGSLRLSCAASGFTVSSADMIWVRQAPGKGLESIGMIYDDGDTYYATSAKGRFTISRDNSKNTLYLQMNSLRAEDTAVYYCVKGVSSVWGQGTLVTVSS
VL: DIQMTQSPSTLSASVGDRVTITCQASENIYRSLAWYQQKPGKAPKLLIYSASTLASGVPSRFSGSGSGTEFTLTISSLQPDDFATYYCQSYDGSSSSSYGVGFGGGTKVEIKR
notes: humanized form of Ab10

Target: T1, human ACTH 18-39 (human)
T1 construct: also called CLIP; CLIP (ACTH 18-39)
T1 peptide: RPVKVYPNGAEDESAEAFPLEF
Assay: SPR ProteOn, antibody immobilised
Description: Antibody was immobilized to the surface of general amine coupling (GLC or GLM) Chips (Bio-Rad). […] At the chosen concentrations of antigen (ranging from 454 ng/ml to 5.6 ng/ml) association times of 200 seconds and dissociation times of 30-200 minutes were used with the ProteOnTM Manager Software (v3.1.0.6, Bio-Rad) to group and fit data using a 1:1 Langmuir binding model. Surfaces were regenerated between analyte queries using 10 mM glycine at pH 2.0. Data repeated across a single density was averaged and a single KD and standard propagation of error calculated for each antibody.

Row | Binder | Kd [nM]
1 | B1 | 28
2 | B2 | 20
3 | B3 | 20
4 | B4 | 20
5 | B5 | 92
6 | B6 | 8.8
7 | B7 | 13

Source: patent US20230174641A1 (H LUNDBECK A S, published 2023)
